What was measured:
[1] = biological target: T1, human CD4 on the surface of SKW3 cells or human PBMCs (human, UniProt P01730 26-458); assay: FACS binning on SKW3 cells; competitor RPA-T4-PE-Dazzle 594 (its signal read); background 783, max binding 15000
T1 construct: whole, on cells; SKW3 CD4 knockout cells served as the negative cell line; also called hCD4; SKW3 WT
Protocol: (§1) αCD4 containing hybridoma supernatants were binned against three comparator antibodies by FACS using SKW3 cells, which endogenously express human CD4 protein. Briefly, SKW3 cells were incubated with saturated hybridoma supernatant for 30 minutes at 4° C.

[2] = biological target: T1, human CD4 on the surface of SKW3 cells …; assay: FACS confirmation, supernatant on human PBMCs, anti-mouse Fc A647, CD4+ gate
Protocol: (§2) FACS Confirmation screens were performed for primary screening positive hybridomas using human PBMCs in addition to SKW3/SKW3 CD4 KO cell lines. PBMCs were thawed and resuspended to 8E6/mL in FACS buffer. […] PBMCs were added to the 96 well plates (25 μL/well) and incubated at 4° C. for 30 minutes. […] Cells were washed twice before acquired by IQUE3 Flow Cytometer and analyzed with FORECYT software (Sartorius). Primary parameter used to assess confirmation was CD4 positive percent of viable cells. […] SKW3 gMFI binding was used as secondary parameter to assess confirmation.

[3] = biological target: T1, human CD4 on the surface of SKW3 cells …; assay: FACS confirmation, supernatant on human PBMCs, anti-mouse Fc A647
Protocol: as §2

[4] = biological target: T1, human CD4 on the surface of SKW3 cells …; assay: FACS confirmation, supernatant on SKW3 WT cells, anti-human kappa FITC; background gMFI 2500
huCD4-HIS = biological target: T2, huCD4-HIS (human, UniProt P01730 26-390, limits assumed); assay: ELISA binning; competitor ibalizumab; 100 ng/mL huCD4-HIS, anti-HIS HRP detection; background 45, max binding 3000000
T2 construct: not shown: HIS tag

[5] = biological target: T1, human CD4 on the surface of SKW3 cells …; assay: FACS binning on SKW3 cells; competitor OKT4a, anti-human A647 secondary (its signal read); background 5000, max binding 35000
Protocol: as §1

[6] = biological target: T1, human CD4 on the surface of SKW3 cells …; assay: FACS binning on SKW3 cells; competitor OKT4-Alexa Fluor 488 (its signal read); background 2163, max binding 8200
Protocol: as §1

[7] = biological target: T1, human CD4 on the surface of SKW3 cells …; assay: FACS primary screen, non-clonal hybridoma supernatant, SKW3 vs SKW3 CD4 KO cells, anti-human kappa FITC
Protocol: (§3) FACS cell binding. αCD4 antibody producing hybridomas were identified by cell surface CD4 binding using FACS. For primary screening SKW3 (human T-ALL) was used as the CD4 positive cell line and SKW3 CD4 knockout (KO) as the negative cell line, respectively. SKW3 KO cells were labeled with Tag-it Violet (BioLegend) at RT for 15 min. After removing extra dye by washing cells with FACS buffer (1% BSA/1 mM EDTA/0.05% NaN3 in PBS) equal number of SKW3 and labeled SKW3 CD4 KO cells were combined, washed, and resuspended in FACS buffer at 8E6 cells/6 mL. […] Cells (˜20K/15 μL/well) were added to the supernatant and incubated at 4° C. for 30 minutes. […] Cells were washed twice before acquired by IQUE3 Flow Cytometer and analyzed with FORECYT software (Sartorius). Positive wells were selected with the following criteria: Over 2-fold selective binding to SKW3 cell line relative to SKW3 CD4 KO with over 10% signal above background binding with anti-human Kappa. Hybridomas from primary screening positive wells were transferred to 96 well plates.

[8] = biological target: T1, human CD4 on the surface of SKW3 cells …; assay: FACS primary screen, non-clonal hybridoma supernatant, SKW3 vs SKW3 CD4 KO cells, anti-mouse Fc A647
Protocol: as §3

[9] = biological target: T1, human CD4 on the surface of SKW3 cells …; assay: FACS confirmation, supernatant on SKW3 WT cells, anti-mouse Fc A647; background gMFI 3300
Protocol: as §2

| RPA-T4-PE-Dazzle 594 signal [1] | PBMCs, anti-mFc 647 CD4+ gate - RL1 Binding [2] | SKW3 WT anti-hu Kappa FITC, gMFI [4] [gMFI] | Ibalizumab ELISA binning signal (huCD4-HIS) | OKT4a anti-hu A647 Secondary signal [5] | OKT4 A488 signal [6] | SKW3 WT vs KO anti-hKappa-FITC [7] [ratio] | SKW3 WT vs KO anti-mFc-647 [8] [ratio] | SKW3 WT anti-mFc 647, gMFI [9] [gMFI] | Binder | PBMCs, anti-mFc 647 CD4+ Percent Bound of Viable [3] [%] |
| --- | --- | --- | --- | --- | --- | --- | --- | --- | --- | --- |
| 13500 | 317000 | 7260 | 335000 | 41500 | 3320 | 3.1 | 8.4 | 30900 | 75110_02E08A (antibody, V domains shown, Tested here as non-clonal hybridoma supernatant from AlivaMab Mouse Kappa mice (detected with anti-mouse Fc and anti-human kappa)) VH: QVQLQESGPGLVKPSETLSLTCTVSGGSISTYYWTWIRQPAGKGLEWIGRVYTSGDTNYNPSLKSRVAMSLDTSKNQFSLKLSSVTAADTAVYYCARDSGALYSWNYGDAFDIWGQGTMVTVSS VL: DIQMTQSPSAMSASVGDRVTITCRASQDISNYLAWFQQKPGKVPKRLIYAASSLQSGVPSRFSGSGSGTEFTLTISSLQPEDFATYYCLQHNSYPRTFGQGTKVEIK | 31 |
| 20700 | 229000 | 8010 | 885000 | 5720 | 9750 | 2.5 | 4.2 | 27300 | 75110_03L12A (antibody, V domains shown, Tested here as non-clonal hybridoma supernatant from AlivaMab Mouse Kappa mice (detected with anti-mouse Fc and anti-human kappa)) VH: QVQLQQWGAGLLKPSETLSLTCAVYGGSFSGYYWSWIRQPPGKGLEWIGEINHSGSTNYNPSLKSRVTISVDTSENQFSLTLISVTAADTAVYYCVRLINWFDPWGQGTLVTVSS VL: DIQMTQSPSSVSASVGDRVTITCRASQDISNWLAWYQQKPGKAPKLLIFAASSLQSGVPSRFSGSGSGTDFTLTISSLQPDDFATYYCQQANSFPYTFGQGTNLGIK | 28 |
| 15000 | 283000 | 7020 | 1.88e+06 | 45900 | 2850 | 2.1 | 3.4 | 27600 | 75110_10L22A (antibody, V domains shown, Tested here as non-clonal hybridoma supernatant from AlivaMab Mouse Kappa mice (detected with anti-mouse Fc and anti-human kappa)) VH: EVQLVESGGGLVQPGGSLRLSCAASGFTFSSYDMHWVRQATGKGLEWVSTIGTAGDTYYPGSVKGRFTISRENAKNSLYLQMNGLRAGDTAVYYCARGNYFYYGVDVWGQGTTVTVSS VL: not shown | 31 |
| 14800 | 304000 | 5810 | 1.99e+06 | 44600 | 2990 | 2 | 4.8 | 22300 | 75110_09G15A (antibody, V domains shown, Tested here as non-clonal hybridoma supernatant from AlivaMab Mouse Kappa mice (detected with anti-mouse Fc and anti-human kappa)) VH: EVQLVESGGGLVQPGGSLRLSCAASGFTFSDYWMSWVRQAPGKGLEWVANINQDGSEKYSVDSVKGRFTISRDNAKNSLYLQMNSLRAEDTAIFYCAREGGQWLALDYWGQGTLVTVSS VL: DIQMTQSPSSVSASVGDRVTITCRASQGISSWLAWYQQKPGKAPKLLIYGASSLQSGVPSRFSGSGSGTDFTLTINSLQPEDFTTYYCQQANIFPWTFGQGTKVEIK | 28 |
| 14700 | 321000 | 5930 | 1.26e+06 | 43700 | 2140 | 2.4 | 7.5 | 32300 | 75110_01J09A (antibody, V domains shown, Tested here as non-clonal hybridoma supernatant from AlivaMab Mouse Kappa mice (detected with anti-mouse Fc and anti-human kappa)) VH: EVQLVESGGGLVQPGGSLRLSCVASGFTFSSYWMSWVRQAPGKGLEWVANTKEDGSDKYYVDSVKGRFTICRDNAKNSLYLQMNSLRAEDTAVYYCAREGGQWLALDYWGQGTLVTVSS VL: DIQMTQSPSSVSASVGDRVTINCRASQGISSWLAWYQQKPGKAPNLLIFGASSLQSGVPSRFSGSGFGTDFSLTITTLQPEDFATYHCQQANSFPWTFGQGTKVEIK | 31 |
| 15900 | 181000 | 5130 | 2.57e+06 | 37400 | 3120 | 1.5 | 3.9 | 16300 | 75110_05L07A (antibody, V domains shown, Tested here as non-clonal hybridoma supernatant from AlivaMab Mouse Kappa mice (detected with anti-mouse Fc and anti-human kappa)) VH: EVQLVESGGGLVQPGGSLRLSCAASGFTFSSYWMSWVRQAPGKGLEWVANINQDGSDKYYVDSVKGRFTISRDNVKNSLYLQINSLRAEDTAVYYCAREGGQWLTLDYWGQGTLVTVSS VL: not shown | 29 |
| 19200 | 266000 | 5920 | 865000 | 6980 | 9510 | 2.4 | 8 | 18700 | 75110_03C01A (antibody, V domains shown, Tested here as non-clonal hybridoma supernatant from AlivaMab Mouse Kappa mice (detected with anti-mouse Fc and anti-human kappa)) VH: QVQLQQWGAGLLKPSETLSLTCAVYGGSFSGYYWSWIRQSPGKGLEWIGEINQSGSTNYNPSLKSRVTISVDTSKDQFSLKLSSVTAADTAVYYCARVINWFDSWGQGSLVTVSS VL: DIQMTQSPSSVSASVGDRVTITCRASQGISSWLAWYQQKPGNAPKLLIYDASSFQSGVPSRFSGSGSGTDFTLTISSLQTEDFATYYCQQANSFPYTFGQGTKLEIK | 28 |
| 14800 | 264000 | 5360 | 2.2e+06 | 42000 | 4020 | 2 | 4 | 18000 | 75110_12H17A (antibody, V domains shown, Tested here as non-clonal hybridoma supernatant from AlivaMab Mouse Kappa mice (detected with anti-mouse Fc and anti-human kappa)) VH: EVQLVESGGGLVQPGGSLRLSCAASGFTFSDYWMSWVRQAPGKGLEWVANIKEDGNEKYYVDSVKGRFTISRDNAKNSLFLQMNSLRAEDTAVYYCAREGGQWLALDYWGQGALVTVSS VL: DIQMTQSPSSVSASVGDRVTITCRASQGISSWLAWYQQKPGKAPKFLISGASSLQSGVPSRFTGSGSGTDFTLTISSLQPEDFATYYCQQANSFPWTFGQGTKVEIK | 29 |
| 14700 | 287000 | 5880 | 1.76e+06 | 46600 | 2700 | 2.2 | 5.4 | 24800 | 75110_09N20A (antibody, V domains shown, Tested here as non-clonal hybridoma supernatant from AlivaMab Mouse Kappa mice (detected with anti-mouse Fc and anti-human kappa)) VH: EVQLVESGGGLVQPGGSLRLSCAASGFTFSSYWMSWVRQAPGKGLEWVANINEDGSEKYYVDSVKGRFTISRDNAKNSLYLQMNSLRAEDTAVYYCVREGGQWLALDYWGQGTLVTVSS VL: DIQMTQSPSSVSASVGDRVTITCRASQGISSWLAWYQQKPGKAPKLLIYAASSLQSGVPSSFSGSGSGTDFTLTINSLQPEDFATYYCQQANSFPWTFGQGTKVAIK | 33 |
| 14600 | 244000 | 6550 | 1.74e+06 | 34400 | 2620 | 2.4 | 5.2 | 22800 | 75110_12H19A (antibody, V domains shown, Tested here as non-clonal hybridoma supernatant from AlivaMab Mouse Kappa mice (detected with anti-mouse Fc and anti-human kappa)) VH: EVQLVESGGGLVQPGGSLRLSCAASGFTFSSYWMSWVRQAPGQGLEWVANINEDGNEKYHVDSVKGRLTISRDNAKNSLYLQMNSLRGVDTAVYFCAREGGQWLALDYWGQGALVTVSS VL: DIQMTQSPSSVSASVGDRVSITCRASQGISSWLAWYQQKPGKAPKLLIYGASGLQSGVPSRFSGSGSGTDFTLTISSLQPEDFATYYCQQANSFPWTFGQGTKVEIK | 27 |
| 14900 | 274000 | 6160 | 1.95e+06 | 43400 | 3170 | 2.3 | 6.7 | 22600 | 75110_04B08A (antibody, V domains shown, Tested here as non-clonal hybridoma supernatant from AlivaMab Mouse Kappa mice (detected with anti-mouse Fc and anti-human kappa)) VH: QVQLVESGGGVVQPGRSLRLSCTASGFNFINYGIHWVRQAPGKGLEWVTIIWYDGSKKYYADSVKGRFAISRDNSKNTLYLQMNSLRAEDTAVYYCAREDDWNDGLAYWGQGTLVTVSS VL: AIQMTQSPSSLSASVGDRVTITCRASQDIRNDLGWYQQKPGKAPNLLIYAASNLQSGVPSRFSGSGSGTDFTLTISSLQPEDFATYYCLQDSNYPRTFGQGTKVEIK | 29 |
